Measured values as given in PMC7592119 (Science (New York, N.Y.), 2019).

Target: truncated cycD1 (16-267) (human, UniProt P24385 16-267)
Experiment: crystal structure

Sequence of truncated cycD1 (16-267) (P24385 16-267): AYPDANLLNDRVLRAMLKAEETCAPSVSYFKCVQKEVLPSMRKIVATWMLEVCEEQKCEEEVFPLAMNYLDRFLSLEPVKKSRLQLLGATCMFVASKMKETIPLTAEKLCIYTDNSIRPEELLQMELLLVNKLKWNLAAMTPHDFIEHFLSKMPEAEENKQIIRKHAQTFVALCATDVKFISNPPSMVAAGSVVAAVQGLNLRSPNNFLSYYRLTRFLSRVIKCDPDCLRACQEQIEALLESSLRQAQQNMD

- binding result: binds
B1: p27(3E) (p27^KID 25-93 with glutamate phosphomimetics at Y74, Y88 and Y89) (domain or fragment, human, UniProt P46527 25-93, looked up)
chain: KPSACRNLFGPVDHEELTRDLEKHCRDMEEASQRKWNFDFQNHKPLEGKEEWQEVEKGSLPEFEERPPR
